The target in test [1] is T1, SMAD2 protein (mouse, UniProt Q62432 2-467).
T1 construct: Endogenous protein in cell lysates
As to the kind of experiment: co-immunoprecipitation with anti-SMAD2 antibody from TGFβ1-stimulated mouse WT primary cardiac fibroblasts, western blot (FIG. 16D).

Test [2] has as its target T1, SMAD2 protein. As to the kind of experiment: co-immunoprecipitation with anti-FLAG antibody from NIH-3T3 lysates, western blot (FIG. 16C). For orientation: In western blotting, separated proteins are transferred to a membrane and probed.

T1 sequence (Q62432 2-467 limits assumed): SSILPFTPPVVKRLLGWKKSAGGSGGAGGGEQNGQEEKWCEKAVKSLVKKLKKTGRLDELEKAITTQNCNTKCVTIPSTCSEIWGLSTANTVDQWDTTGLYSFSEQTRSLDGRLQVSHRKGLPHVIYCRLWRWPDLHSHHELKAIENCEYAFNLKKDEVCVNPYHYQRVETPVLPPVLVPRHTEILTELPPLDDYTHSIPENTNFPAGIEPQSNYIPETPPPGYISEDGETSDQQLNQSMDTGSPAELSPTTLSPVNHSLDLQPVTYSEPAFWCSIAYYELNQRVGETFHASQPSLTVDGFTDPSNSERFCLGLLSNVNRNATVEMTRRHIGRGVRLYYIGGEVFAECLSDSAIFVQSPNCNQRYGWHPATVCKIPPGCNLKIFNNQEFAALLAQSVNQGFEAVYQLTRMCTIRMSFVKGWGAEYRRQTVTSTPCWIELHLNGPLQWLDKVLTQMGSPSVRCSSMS

B1: WWP2-C, endogenous in mouse WT primary cardiac fibroblasts (enzyme, UniProt Q9DBH0 440-870, looked up)
chain: MIQEPALPPGWEMKYTSEGVRYFVDHNTRTTTFKDPRPGFESGTKQGSPGAYDRSFRWKYHQFRFLCHSNALPSHVKISVSRQTLFEDSFQQIMNMKPYDLRRRLYIIMRGEEGLDYGGIAREWFFLLSHEVLNPMYCLFEYAGKNNYCLQINPASSINPDHLTYFRFIGRFIAMALYHGKFIDTGFTLPFYKRMLNKRPTLKDLESIDPEFYNSIVWIKENNLEECGLELFFIQDMEILGKVTTHELKEGGENIRVTEENKEEYIMLLTDWRFTRGVEEQTKAFLDGFNEVAPLEWLRYFDEKELELMLCGMQEIDMSDWQKNAIYRHYTKSSKQIQWFWQVVKEMDNEKRIRLLQFVTGTCRLPVGGFAELIGSNGPQKFCIDRVGKETWLPRSHTCFNRLDLPPYKSYEQLKEKLLYAIEETEGFGQE
As for B1, the binding result in test [1] is recorded as “no binding”.

B2: FLAG-tagged WWP2-C (enzyme)
chain: MIQEPALPPGWEMKYTSEGVRYFVDHNTRTTTFKDPRPGFESGTKQGSPGAYDRSFRWKYHQFRFLCHSNALPSHVKISVSRQTLFEDSFQQIMNMKPYDLRRRLYIIMRGEEGLDYGGIAREWFFLLSHEVLNPMYCLFEYAGKNNYCLQINPASSINPDHLTYFRFIGRFIAMALYHGKFIDTGFTLPFYKRMLNKRPTLKDLESIDPEFYNSIVWIKENNLEECGLELYFIQDMEILGKVTTHELKEGGESIRVTEENKEEYIMLLTDWRFTRGVEEQTKAFLDGFNEVAPLEWLRYFDEKELELMLCGMQEIDMSDWQKSTIYRHYTKNSKQIQWFWQVVKEMDNEKRIRLLQFVTGTCRLPVGGFAELIGSNGPQKFCIDKVGKETWLPRSHTCFNRLDLPPYKSYEQLREKLLYAIEETEGFGQE
notes: Expressed from a plasmid in NIH-3T3 mouse fibroblasts; The position of the FLAG tag is unknown; also called WWP2-Flag isoforms; C-terminal isoform; not shown: FLAG tag
Take B2: the binding result in test [2] was “no binding”.

The record behind these values is patent US20260201389A1 (NATIONAL UNIVERSITY OF SINGAPORE, published 2026).
